Source: patent US20250361295A1 (ANTENGENE BIOLOGICS, published 2025)

B1: h2-H1-D7-E5-D5 (antibody, V domains shown)
VH: EVQLVESGGGLVQPGGSLRLSCAASGFTFSSFGMHWVRQAPGKGLEWVAYISSGSSSIYYADTVKGRFTISRDNAKNSLYLQMNSLRAEDTAVYYCARGTGTGAMDYWGQGTLVTVSS
VL: DIQMTQSPSSLSASVGDRVTITCRTSQDISNYLNWYQQKPGKAPKLLIYYTSKLHSGVPSRFSGSGSGTDFTFTISSLQPEDIATYFCQQGNTLPWTFGGGTKLEIK
notes: humanized antibody of ch2-H1-D7-E5-D5; also called humanized 2-H1-D7-E5-D5
B2: h8-B3-F6-H8 (antibody, V domains shown)
VH: EVQLVESGGGLVQPGGSLRLSCAASGFDFSRYWMSWVRQAPGKGLVWIGEINPESSAINYAPSLKDRFTISRDNAKNTLYLQMNSLRAEDTAVYYCATSMTMDYWGQGTLVTVSS
VL: DIQMTQSPSSLSASVGDRVTITCKASQDIKSYLSWYQQKPGKAPKTLIYYATSLAGGVPSRFSGSGSGTDYTLTISSLQPEDFATYYCLQHGESPYTFGGGTKLEIK
notes: humanized antibody of ch8-B3-F6-H8; also called humanized 8-B3-F6-H8
B3: ch44-F10-B6-D4 (antibody, V domains shown)
VH: EVHLVESGGGLVKPGGSLKLSCAASGFTFSSYAMSWVRQTPEKRLEWVATISSGGSYIYYPDSVKGRFTISRDNAKNTLYLQMSSLRSEDTAMYYCARQDWDGGDYYAMDYWGQGTSVTVSS
VL: DIVMTQSPSSLAVSAGEKVTMSCKSSQSVLYSSNQKNFLAWYQQKPGQSPKLLIYWASTRESGVPDRFTGSGSGTDFTLTISSVQAEDLAVYYCHQYLSSLTFGAGTKLELK

Legend:
human LILRB4 [1] = target: T1, human LILRB4 (human, UniProt Q8NHJ6 22-448); experiment: ELISA and FACS on 293F-hLILRB4 cells
T1 construct: whole, on cells; the same id is used for LILRB4 on THP-1, MV-4-11 and tolerogenic dendritic cells in the functional assays; also called hLILRB4

[2] = target: T2, cynomolgus (Macaca fascicularis) LILRB4 (cynomolgus (Macaca fascicularis)); experiment: FACS, CHO-S-cynoLILRB4 cells
T2 construct: whole, on cells; also called cynoLILRB4; CHO-S-cynoLILRB4
Description: (§1) The protocol for FACS analysis is described as follows: [0438] (a) Cells were harvested by centrifugation at 300 g for 3 mins. […] (b) The cells were washed for 2 times with FACS buffer by centrifuging at 300 g for 3 mins and the supernatant was discarded. [0440] (c) Cell were resuspended and seeded into assay plate (2×10⁵ cells/well) in 50 μl FACS buffer. […] Cells were incubated with antibodies at 4° C. for 1 hour. […] (d) Step (b) was repeated and the cells were resuspended with 100 μl diluted 2nd antibody, incubated at 4° C. for 1 hour in the dark. [0442] (e) Step (b) was repeated and the cells were resuspended with 100 μl FACS buffer. The cells were kept in dark for FACS analysis.

human LILRB3 = target: T3, human LILRB3 (human, UniProt O75022 24-631); experiment: FACS, 293F-hLILRB3 cells
T3 construct: whole, on cells; also called hLILRB3
T3 sequence (O75022 24-631): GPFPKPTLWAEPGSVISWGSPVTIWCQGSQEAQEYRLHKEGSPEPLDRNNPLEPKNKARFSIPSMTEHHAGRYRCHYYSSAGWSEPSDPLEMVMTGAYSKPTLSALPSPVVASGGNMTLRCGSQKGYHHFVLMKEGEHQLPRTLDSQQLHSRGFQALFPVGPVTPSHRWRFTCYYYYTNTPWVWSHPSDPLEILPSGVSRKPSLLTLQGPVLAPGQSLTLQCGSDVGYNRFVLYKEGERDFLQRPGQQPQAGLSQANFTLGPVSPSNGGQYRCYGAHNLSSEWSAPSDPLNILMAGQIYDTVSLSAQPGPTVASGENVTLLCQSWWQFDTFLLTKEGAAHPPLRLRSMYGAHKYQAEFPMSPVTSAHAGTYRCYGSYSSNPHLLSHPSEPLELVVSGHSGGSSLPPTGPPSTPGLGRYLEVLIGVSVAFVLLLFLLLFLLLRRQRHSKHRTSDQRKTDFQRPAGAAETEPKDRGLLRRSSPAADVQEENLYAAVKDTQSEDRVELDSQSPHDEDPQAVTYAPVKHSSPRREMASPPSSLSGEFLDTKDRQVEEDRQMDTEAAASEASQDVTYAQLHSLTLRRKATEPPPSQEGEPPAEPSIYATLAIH
Description: as §1

human LILRB4 [3] = target: T1, human LILRB4; experiment: cell-based or functional assay
human LILRB4 [4] = target: T1, human LILRB4; experiment: FACS, 293F-hLILRB4 cells
Description: as §1

human LILRA6 protein = target: T4, human LILRA6 protein (human, UniProt Q6PI73 24-447, limits assumed); experiment: ELISA, LILRA6 protein
T4 construct: protein for ELISA; construct not described; also called hLILRA6 protein
T4 sequence (Q6PI73 24-447 limits assumed): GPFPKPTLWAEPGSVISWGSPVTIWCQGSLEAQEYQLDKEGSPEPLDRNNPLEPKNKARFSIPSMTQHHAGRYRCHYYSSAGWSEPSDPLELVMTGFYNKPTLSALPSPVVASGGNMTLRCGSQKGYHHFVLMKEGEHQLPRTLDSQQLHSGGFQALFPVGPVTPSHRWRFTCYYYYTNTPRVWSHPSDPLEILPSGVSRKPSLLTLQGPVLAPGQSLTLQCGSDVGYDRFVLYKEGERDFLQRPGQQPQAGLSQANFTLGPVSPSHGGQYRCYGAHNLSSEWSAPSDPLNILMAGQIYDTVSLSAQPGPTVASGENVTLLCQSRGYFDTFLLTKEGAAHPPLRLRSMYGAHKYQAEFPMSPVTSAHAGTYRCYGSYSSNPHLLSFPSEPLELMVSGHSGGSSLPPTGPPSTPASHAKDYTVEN

human LILRB4 [5] = target: T1, human LILRB4; experiment: cell-based or functional assay; remark: listed apart in the source
human LILRB4 [6] = target: T1, human LILRB4; experiment: cell-based or functional assay; remark: listed apart in the source

Binder | binding result (human LILRB4 [1]) | EC50 [2] [nM] | binding result (human LILRB3) | FcγR stimulation (TNF-α, pg/mL) (human LILRB4 [3]) [pg/mL] | Fold change (Compared to isotype) (human LILRB4 [3]) [fold] | EC50 (human LILRB4 [4]) [nM] | Max MFI (human LILRB4 [4]) [MFI] | binding result (human LILRA6 protein) | ADCP (%) at 133.3 nM, macrophages and MV-4-11 cells (human LILRB4 [5]) [%] | EC50 (nM), ADCC on THP-1 cells (human LILRB4 [6]) [nM] | Max cell cytotoxicity (%), ADCC on THP-1 cells (human LILRB4 [6]) [%]
B1 | binds | – | – | – | – | – | – | – | – | – | –
B2 | binds | – | – | – | – | – | – | – | – | – | –
B3 | – | 103 | no binding (tested: up to 66.67 nM) | 126 | 3.97 | 0.57 | 5470 | no binding | 3.12 | 1.43 | 0.43
